Data taken from paper PMC4119599 (Biochemistry, 2011).

What was measured:
[1] = test system: CC(C)(COP(=O)(O)OP(=O)(O)OC[C@H]1O[C@@H](n2cnc3c(N)ncnc32)[C@H](O)[C@@H]1OP(=O)(O)O)[C@@H](O)C(=O)NCCC(=O)NCCSC(=O)CCC(=O)c1ccccc1C(=O)O; assay: purified protein; settings: pH 7.0; 25.0 °C
[2] = test system: CC(C)(COP(=O)(O)OP(=O)(O)OC[C@H]1O[C@@H](n2cnc3c(N)ncnc32)[C@H](O)[C@@H]1OP(=O)(O)O)[C@@H](O)C(=O)NCCC(=O)NCCSC(=O)CCCc1ccccc1C(=O)O; assay: purified protein; settings: pH 7.0; 25.0 °C
mtMenB [3] = biological target: T1, mtMenB (Mycobacterium tuberculosis, UniProt P9WNP5); assay: not stated; format: binding
T1 sequence (P9WNP5 whole entry): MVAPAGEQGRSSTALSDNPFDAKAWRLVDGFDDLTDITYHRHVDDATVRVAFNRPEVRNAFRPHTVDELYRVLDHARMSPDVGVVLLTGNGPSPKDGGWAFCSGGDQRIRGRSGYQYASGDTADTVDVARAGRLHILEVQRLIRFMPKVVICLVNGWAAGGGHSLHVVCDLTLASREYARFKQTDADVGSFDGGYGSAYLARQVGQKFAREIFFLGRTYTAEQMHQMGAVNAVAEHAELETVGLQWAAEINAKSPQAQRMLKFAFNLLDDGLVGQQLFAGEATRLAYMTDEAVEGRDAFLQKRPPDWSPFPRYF

[4] = test system: CC(C)(COP(=O)(O)OP(=O)(O)OC[C@H]1O[C@@H](n2cnc3c(N)ncnc32)[C@H](O)[C@@H]1OP(=O)(O)O)[C@@H](O)C(=O)NCCC(=O)NCCSC(=O)CCC(=O)c1ccccc1C(=O)O; assay: purified protein; format: biochemical, Escherichia coli; settings: pH 7.0; 25.0 °C
ecMenB = ecMenB (Escherichia coli, UniProt P0ABU0); assay: X-ray co-crystal structure, […] Å; format: binding; settings: all six active sites of the hexamer; stable substrate analogue; pH 6.5
Sequence of ecMenB (P0ABU0 whole entry): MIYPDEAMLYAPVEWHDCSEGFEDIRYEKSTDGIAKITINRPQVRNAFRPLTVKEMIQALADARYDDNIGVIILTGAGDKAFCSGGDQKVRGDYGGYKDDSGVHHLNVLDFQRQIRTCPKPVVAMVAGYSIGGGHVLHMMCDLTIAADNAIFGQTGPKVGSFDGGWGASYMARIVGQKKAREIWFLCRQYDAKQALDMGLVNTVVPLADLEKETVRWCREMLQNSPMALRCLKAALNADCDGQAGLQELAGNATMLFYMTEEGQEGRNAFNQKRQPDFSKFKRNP

mtMenB [5] = biological target: T1, mtMenB; assay: X-ray co-crystal structure, […] Å; format: binding; settings: partial occupancy, weak density, acyl part not resolved; pH 8.0

Compound: (Mycobacterium tuberculosis H37Rv)
- Km [1]: 22.4 ± 2.1 µM
- Km [2]: 106 ± 31 µM
- kcat/Km [2]: 2.4 ± 0.7 M⁻¹ s⁻¹

Compound: COC(=O)c1ccccc1C(=O)CCC(=O)SCCNC(=O)CCNC(=O)[C@H](O)C(C)(C)COP(=O)(O)OP(=O)(O)OC[C@H]1O[C@@H](n2cnc3c(N)ncnc32)[C@H](O)[C@@H]1OP(=O)(O)O [OSB-CoA methyl ester]
- Kd (mtMenB [3]): 11.5 ± 1.2 µM

Compound: (Escherichia coli K-12)
- Km [4]: 25.9 ± 3.3 µM

Compound: CC(C)(COP(=O)(O)OP(=O)(O)OC[C@H]1O[C@@H](n2cnc3c(N)ncnc32)[C@H](O)[C@@H]1OP(=O)(O)O)[C@@H](O)C(=O)NCCC(=O)NCCNC(=O)CCC(=O)c1ccccc1C(=O)O [OSB-NCoA]
- X-ray co-crystal structure, 2.00 Å (ecMenB): In the structure of OSB-NCoA bound to ecMenB, the ligand can be observed in all six
- X-ray co-crystal structure, 2.25 Å (mtMenB [5]): Density for OSB-NCoA can be observed but is weak in chain C
